Data reported in patent US20070298494A1 (KANSAS STATE UNIVERSITY RESEARCH FOUNDATION, published 2007).

Target: the molecule itself
Experiment: BS3 chemical cross-linking in solution, SDS-PAGE, silver stain; association of the peptide with itself
Experimental: In order to visualize the oligomeric state of the peptide in solution a chemical cross-linking protocol was developed. Calculated amounts of each peptide were weighted out and dissolved in 1 mL of distilled water to make 1 mM stock solutions. A 100 mM stock solution of the chemical crosslinking reagent Bis[Sulfosuccinimidyl]suberate, BS³, (Pierce Chemical Co., Rockford, Ill.) was prepared in dimethyl sulfoxide (DMSO). In typical reactions, 5-30 μL of 1.0 mM stock solution of peptide are added to 64-94 μL of 10 mM HEPES buffer, pH 8.1 to give a range of concentrations starting at 50 μM rising up to 300 μM. Sample were allowed to sit at room temperature for 15 minutes. 1-6 μL of 100 mM BS³ was then added to the previously prepared peptide such that the crosslinking reagent was present in 20-fold excess. The final volume for each reaction was 100 μL. After reacting for 30 minutes, the reaction was stopped with the addition of 10 μL 1.0 N HCl. Each sample was then vacuum dried. Later dry samples were re-dissolved in 60 μL of distilled water along with 60 μL of a 2×-tricine SDS sample buffer (Novex, San Diego). All samples were then boiled at 100° C. for 5 minutes. 5 μL aliquots of each SDS boiled sample was then loaded into separate lanes of pre-cast, 1.0 mm, 10 well, 10-20% tricine gels (Novex, San Diego). Pre-made Novex tricine-SDS buffer was used in the electrophoresis. The reference well contained 1 μL of MultiMark® multi-colored molecular weight standard (Novex, San Diego). The electrophoresis was carried out at a constant 110 Volts for 90 minutes. The gel was then fixed in 40% methanol in water and the cross-linked peptides visualized using silver staining (SilverXpress® silver staining kit, Invitrogen, Carlsbad, Calif.).

Protein	binding result
KKKKPARVGLGITTVLTMTTQSSGSRA (Synthetic peptide; tested for association with itself in solution by BS3 cross-linking and SDS-PAGE; also called NK4ALB) [N-K4-M2GlyR]	binds
PARVGLGITTVLTMTTQSSGSRAKKKK (Synthetic peptide; tested for association with itself in solution by BS3 cross-linking and SDS-PAGE; also called CK4ALB) [C-K4-M2GlyR]	binds
KKKKAARVGLGITTVWVTTIGLGVRAA (Synthetic peptide; tested for association with itself in solution by BS3 cross-linking and SDS-PAGE) [NK4A'Wa']	no binding
